The results in this text go back to article PMC4551919 (Nucleic Acids Research, 2015).

First the molecules themselves.
B1: UPF1, full length (natural protein)
chain: MSVEAYGPSSQTLTFLDTEEAELLGADTQGSEFEFTDFTLPSQTQTPPGGPGGPGGGGAGGPGGAGAGAAAGQLDAQVGPEGILQNGAVDDSVAKTSQLLAELNFEEDEEDTYYTKDLPIHACSYCGIHDPACVVYCNTSKKWFCNGRGNTSGSHIVNHLVRAKCKEVTLHKDGPLGETVLECYNCGCRNVFLLGFIPAKADSVVVLLCRQPCASQSSLKDINWDSSQWQPLIQDRCFLSWLVKIPSEQEQLRARQITAQQINKLEELWKENPSATLEDLEKPGVDEEPQHVLLRYEDAYQYQNIFGPLVKLEADYDKKLKESQTQDNITVRWDLGLNKKRIAYFTLPKTDSGNEDLVIIWLRDMRLMQGDEICLRYKGDLAPLWKGIGHVIKVPDNYGDEIAIELRSSVGAPVEVTHNFQVDFVWKSTSFDRMQSALKTFAVDETSVSGYIYHKLLGHEVEDVIIKCQLPKRFTAQGLPDLNHSQVYAVKTVLQRPLSLIQGPPGTGKTVTSATIVYHLARQGNGPVLVCAPSNIAVDQLTEKIHQTGLKVVRLCAKSREAIDSPVSFLALHNQIRNMDSMPELQKLQQLKDETGELSSADEKRYRALKRTAERELLMNADVICCTCVGAGDPRLAKMQFRSILIDESTQATEPECMVPVVLGAKQLILVGDHCQLGPVVMCKKAAKAGLSQSLFERLVVLGIRPIRLQVQYRMHPALSAFPSNIFYEGSLQNGVTAADRVKKGFDFQWPQPDKPMFFYVTQGQEEIASSGTSYLNRTEAANVEKITTKLLKAGAKPDQIGIITPYEGQRSYLVQYMQFSGSLHTKLYQEVEIASVDAFQGREKDFIILSCVRANEHQGIGFLNDPRRLNVALTRARYGVIIVGNPKALSKQPLWNHLLNYYKEQKVLVEGPLNNLRESLMQFSKPRKLVNTINPGARFMTTAMYDAREAIIPGSVYDRSSQGRPSSMYFQTHDQIGMISAGPSHVAAMNIPIPFNLVMPPMPPPGYFGQANGPAAGRGTPKGKTGRGGRQKNRFGLPGPSQTNLPNSQASQDVASQPFSQGALTQGYISMSQPSQMSQPGLSQPELSQDSYLGDEFKSQIDVALSQDSTYQGERAYQHGGVTGLSQY
B2: SMG-9 (natural protein)
chain: MSESGHSQPGLYGIERRRRWKEPGSGGPQNLSGPGGRERDYIAPWERERRDASEETSTSVMQKTPIILSKPPAERSKQPPPPTAPAAPPAPAPLEKPIVLMKPREEGKGPVAVTGASTPEGTAPPPPAAPAPPKGEKEGQRPTQPVYQIQNRGMGTAAPAAMDPVVGQAKLLPPERMKHSIKLVDDQMNWCDSAIEYLLDQTDVLVVGVLGLQGTGKSMVMSLLSANTPEEDQRTYVFRAQSAEMKERGGNQTSGIDFFITQERIVFLDTQPILSPSILDHLINNDRKLPPEYNLPHTYVEMQSLQIAAFLFTVCHVVIVVQDWFTDLSLYRFLQTAEMVKPSTPSPSHESSSSSGSDEGTEYYPHLVFLQNKARREDFCPRKLRQMHLMIDQLMAHSHLRYKGTLSMLQCNVFPGLPPDFLDSEVNLFLVPFMDSEAESENPPRAGPGSSPLFSLLPGYRGHPSFQSLVSKLRSQVMSMARPQLSHTILTEKNWFHYAARIWDGVRKSSALAEYSRLLA
B3: UPF2 (121–1227) (domain or fragment)
chain: MKEKEESIQLHQEAWERHHLRKELRSKNQNAPDSRPEENFFSRLDSSLKKNTAFVKKLKTITEQQRDSLSHDFNGLNLSKYIAEAVASIVEAKLKISDVNCAVHLCSLFHQRYADFAPSLLQVWKKHFEARKEEKTPNITKLRTDLRFIAELTIVGIFTDKEGLSLIYEQLKNIINADRESHTHVSVVISFCRHCGDDIAGLVPRKVKSAAEKFNLSFPPSEIISPEKQQPFQNLLKEYFTSLTKHLKRDHRELQNTERQNRRILHSKGELSEDRHKQYEEFAMSYQKLLANSQSLADLLDENMPDLPQDKPTPEEHGPGIDIFTPGKPGEYDLEGGIWEDEDARNFYENLIDLKAFVPAILFKDNEKSCQNKESNKDDTKEAKESKENKEVSSPDDLELELENLEINDDTLELEGGDEAEDLTKKLLDEQEQEDEEASTGSHLKLIVDAFLQQLPNCVNRDLIDKAAMDFCMNMNTKANRKKLVRALFIVPRQRLDLLPFYARLVATLHPCMSDVAEDLCSMLRGDFRFHVRKKDQINIETKNKTVRFIGELTKFKMFTKNDTLHCLKMLLSDFSHHHIEMACTLLETCGRFLFRSPESHLRTSVLLEQMMRKKQAMHLDARYVTMVENAYYYCNPPPAEKTVKKKRPPLQEYVRKLLYKDLSKVTTEKVLRQMRKLPWQDQEVKDYVICCMINIWNVKYNSIHCVANLLAGLVLYQEDVGIHVVDGVLEDIRLGMEVNQPKFNQRRISSAKFLGELYNYRMVESAVIFRTLYSFTSFGVNPDGSPSSLDPPEHLFRIRLVCTILDTCGQYFDRGSSKRKLDCFLVYFQRYVWWKKSLEVWTKDHPFPIDIDYMISDTLELLRPKIKLCNSLEESIRQVQDLEREFLIKLGLVNDKDSKDSMTEGENLEEDEEEEEGGAETEEQSGNESEVNEPEEEEGSDNDDDEGEEEEEENTDYLTDSNKENETDEENTEVMIKGGGLKHVPCVEDEDFIQALDKMMLENLQQRSGESVKVHQLDVAIPLHLKSQLRKGPPLGGGEGEAESADTMPFVMLTRKGNKQQFKILNVPMSSQLAANHWNQQQAEQEERMRMKKLTLDINERQEQED
B4: SMG-8 (natural protein)
chain: MAGPVSLRDLLMGASAWMGSESPGGSPTEGGGSAAGGPEPPWREDEICVVGIFGKTALRLNSEKFSLVNTVCDRQVFPLFRHQDPGDPGPGIRTEAGAVGEAGGAEDPGAAAGGSVRGSGAVAEGNRTEAGSQDYSLLQAYYSQESKVLYLLLTSICDNSQLLRACRALQSGEAGGGLSLPHAEAHEFWKHQEKLQCLSLLYLFSVCHILLLVHPTCSFDITYDRVFRALDGLRQKVLPLLKTAIKDCPVGKDWKLNCRPCPPRLLFLFQLNGALKVEPPRNQDPAHPDKPKKHSPKRRLQHALEDQIYRIFRKSRVLTNQSINCLFTVPANQAFVYIVPGSQEEDPVGMLLDQLRSHCTVKDPESLLVPAPLSGPRRYQVMRQHSRQQLSFHIDSSSSSSSGQLVDFTLREFLWQHVELVLSKKGFDDSVGRNPQPSHFELPTYQKWISAASKLYEVAIDGKEEDLGSPTGELTSKILSSIKVLEGFLDIDTKFSENRCQKALPMAHSAYQSNLPHNYTMTVHKNQLAQALRVYSQHARGPAFHKYAMQLHEDCYKFWSNGHQLCEERSLTDQHCVHKFHSLPKSGEKPEADRNPPVLYHNSRARSTGACNCGRKQAPRDDPFDIKAANYDFYQLLEEKCCGKLDHINFPVFEPSTPDPAPAKNESSPAPPDSDADKLKEKEPQTQGESTSLSLALSLGQSTDSLGTYPADPQAGGDNPEVHGQVEVKTEKRPNFVDRQASTVEYLPGMLHSNCPKGLLPKFSSWSLVKLGPAKSYNFHTGLDQQGFIPGTNYLMPWDIVIRTRAEDEGDLDTNSWPAPNKAIPGKRSAVVMGRGRRRDDIARAFVGFEYEDSRGRRFMCSGPDKVMKVMGSGPKESALKALNSDMPLYILSSSQGRGLKPHYAQLMRLFVVVPDAPLQIILMPQVQPGPPPCPVFYPEKQEITLPPDGLWVLRFPYAYVTERGPCFPPKENVQLMSYKVLRGVLKAVTQ

One experiment deals with SMG-1–8–9 complex (human | , UniProt Q96Q15;Q8ND04;Q9H0W8). Put plainly: negative-stain electron microscopy.
Chain of SMG-1–8–9 complex (Q96Q15 whole entry, one chain of several): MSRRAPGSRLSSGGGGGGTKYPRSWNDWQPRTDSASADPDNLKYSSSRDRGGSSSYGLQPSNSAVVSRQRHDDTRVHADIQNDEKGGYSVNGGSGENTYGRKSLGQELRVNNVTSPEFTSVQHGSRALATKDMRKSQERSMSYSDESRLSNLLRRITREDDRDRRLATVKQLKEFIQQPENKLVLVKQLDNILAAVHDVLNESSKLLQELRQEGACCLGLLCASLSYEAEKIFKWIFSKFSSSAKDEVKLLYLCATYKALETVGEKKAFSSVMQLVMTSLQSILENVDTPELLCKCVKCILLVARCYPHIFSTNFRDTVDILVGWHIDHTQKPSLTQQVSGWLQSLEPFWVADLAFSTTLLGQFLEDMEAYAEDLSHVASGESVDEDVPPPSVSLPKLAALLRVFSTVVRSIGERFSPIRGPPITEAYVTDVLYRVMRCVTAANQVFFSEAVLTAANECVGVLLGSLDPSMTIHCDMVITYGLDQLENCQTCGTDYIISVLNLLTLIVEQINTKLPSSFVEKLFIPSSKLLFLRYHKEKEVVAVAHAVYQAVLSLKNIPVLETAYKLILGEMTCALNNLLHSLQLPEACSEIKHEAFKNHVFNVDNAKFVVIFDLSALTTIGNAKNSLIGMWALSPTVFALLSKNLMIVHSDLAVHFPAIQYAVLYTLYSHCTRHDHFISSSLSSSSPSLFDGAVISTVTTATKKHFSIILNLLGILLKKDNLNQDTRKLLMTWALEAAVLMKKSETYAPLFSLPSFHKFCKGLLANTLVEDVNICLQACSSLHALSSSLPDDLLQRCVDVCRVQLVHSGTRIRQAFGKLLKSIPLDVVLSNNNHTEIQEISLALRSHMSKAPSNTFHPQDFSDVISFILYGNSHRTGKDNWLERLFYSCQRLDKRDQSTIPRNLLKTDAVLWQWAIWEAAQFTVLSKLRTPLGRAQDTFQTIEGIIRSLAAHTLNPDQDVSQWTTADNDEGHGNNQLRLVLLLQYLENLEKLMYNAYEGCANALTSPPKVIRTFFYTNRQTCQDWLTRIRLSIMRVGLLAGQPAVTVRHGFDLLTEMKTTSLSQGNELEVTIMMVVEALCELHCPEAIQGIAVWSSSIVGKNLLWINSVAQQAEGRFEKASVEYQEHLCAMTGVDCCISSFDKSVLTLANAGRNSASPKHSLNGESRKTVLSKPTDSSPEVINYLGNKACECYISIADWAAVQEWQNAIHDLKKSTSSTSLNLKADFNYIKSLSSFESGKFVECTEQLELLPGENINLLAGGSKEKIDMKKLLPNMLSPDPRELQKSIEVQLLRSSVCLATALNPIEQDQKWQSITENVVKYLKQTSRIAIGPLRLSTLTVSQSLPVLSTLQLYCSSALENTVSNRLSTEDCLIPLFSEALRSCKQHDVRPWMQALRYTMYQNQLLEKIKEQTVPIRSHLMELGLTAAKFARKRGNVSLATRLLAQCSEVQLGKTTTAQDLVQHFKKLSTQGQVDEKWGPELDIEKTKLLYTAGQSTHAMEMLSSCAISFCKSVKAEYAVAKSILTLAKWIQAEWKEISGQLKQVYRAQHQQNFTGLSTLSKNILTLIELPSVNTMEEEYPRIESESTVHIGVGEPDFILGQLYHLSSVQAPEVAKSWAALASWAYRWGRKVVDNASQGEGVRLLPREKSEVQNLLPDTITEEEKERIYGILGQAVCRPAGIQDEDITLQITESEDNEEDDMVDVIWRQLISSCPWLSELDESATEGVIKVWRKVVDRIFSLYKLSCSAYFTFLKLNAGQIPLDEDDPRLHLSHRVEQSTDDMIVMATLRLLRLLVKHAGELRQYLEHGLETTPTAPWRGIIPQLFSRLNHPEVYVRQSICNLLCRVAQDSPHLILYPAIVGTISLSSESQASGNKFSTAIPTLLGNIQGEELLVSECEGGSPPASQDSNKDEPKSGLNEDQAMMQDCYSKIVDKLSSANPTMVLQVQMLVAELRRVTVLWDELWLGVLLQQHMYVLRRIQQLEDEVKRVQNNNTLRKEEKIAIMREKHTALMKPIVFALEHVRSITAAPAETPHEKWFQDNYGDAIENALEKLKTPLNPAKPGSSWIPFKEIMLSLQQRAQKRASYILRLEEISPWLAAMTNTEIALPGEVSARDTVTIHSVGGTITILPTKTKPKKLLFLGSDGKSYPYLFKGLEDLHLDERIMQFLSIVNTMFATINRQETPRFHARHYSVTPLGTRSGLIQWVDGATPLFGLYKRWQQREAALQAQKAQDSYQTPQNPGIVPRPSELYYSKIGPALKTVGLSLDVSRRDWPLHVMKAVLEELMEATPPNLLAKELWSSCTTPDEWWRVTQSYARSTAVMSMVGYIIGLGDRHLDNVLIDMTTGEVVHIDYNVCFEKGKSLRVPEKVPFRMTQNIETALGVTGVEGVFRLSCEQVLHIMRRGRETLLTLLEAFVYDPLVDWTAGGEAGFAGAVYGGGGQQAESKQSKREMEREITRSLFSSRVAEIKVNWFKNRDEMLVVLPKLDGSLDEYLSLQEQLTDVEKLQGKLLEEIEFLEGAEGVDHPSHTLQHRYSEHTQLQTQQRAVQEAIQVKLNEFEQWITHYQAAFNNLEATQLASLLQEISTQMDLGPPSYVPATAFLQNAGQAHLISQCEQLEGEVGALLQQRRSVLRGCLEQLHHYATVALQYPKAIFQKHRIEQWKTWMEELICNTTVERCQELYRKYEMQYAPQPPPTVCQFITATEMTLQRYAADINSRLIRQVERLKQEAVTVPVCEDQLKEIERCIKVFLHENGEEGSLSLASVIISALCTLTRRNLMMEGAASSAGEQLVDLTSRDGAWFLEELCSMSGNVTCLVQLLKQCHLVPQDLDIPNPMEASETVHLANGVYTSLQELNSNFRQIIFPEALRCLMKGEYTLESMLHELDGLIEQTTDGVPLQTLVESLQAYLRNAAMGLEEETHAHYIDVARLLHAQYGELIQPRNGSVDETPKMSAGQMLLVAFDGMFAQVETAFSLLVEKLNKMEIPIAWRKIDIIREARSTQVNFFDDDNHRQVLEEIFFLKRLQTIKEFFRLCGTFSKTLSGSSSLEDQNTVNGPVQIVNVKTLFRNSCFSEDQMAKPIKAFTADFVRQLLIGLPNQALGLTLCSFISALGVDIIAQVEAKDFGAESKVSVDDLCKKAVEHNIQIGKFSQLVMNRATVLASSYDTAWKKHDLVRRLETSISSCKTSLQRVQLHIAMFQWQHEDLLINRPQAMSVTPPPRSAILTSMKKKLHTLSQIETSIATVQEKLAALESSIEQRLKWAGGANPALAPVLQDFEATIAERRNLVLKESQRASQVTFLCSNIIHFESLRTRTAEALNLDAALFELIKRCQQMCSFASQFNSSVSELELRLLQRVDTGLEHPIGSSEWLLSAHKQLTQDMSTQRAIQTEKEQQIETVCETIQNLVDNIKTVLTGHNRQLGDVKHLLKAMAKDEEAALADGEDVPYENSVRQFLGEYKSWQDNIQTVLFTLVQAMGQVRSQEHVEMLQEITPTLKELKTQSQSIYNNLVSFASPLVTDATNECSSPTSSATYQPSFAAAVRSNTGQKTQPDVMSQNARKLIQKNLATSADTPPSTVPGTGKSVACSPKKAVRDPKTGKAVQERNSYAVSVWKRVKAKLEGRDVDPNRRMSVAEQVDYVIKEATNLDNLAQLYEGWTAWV
Experiment [1] has as its target T1, SMG-1, full length, SBP-tagged (human, UniProt Q96Q15 1-3661). As to the kind of experiment: cryo-EM structure.
For the experiment “SMG-8”, the target named is B4. As to the kind of experiment: cross-linking.
The target of experiment [2] is T1, SMG-1, full length, SBP-tagged. Put plainly: cross-linking.
The target of experiment [3] is B1. As to the kind of experiment: cross-linking.
Experiment [4] has as its target B1. As to the kind of experiment: SEC. (In general: In gel filtration, larger molecules generally elute earlier.)

T1 sequence (Q96Q15 whole entry): as the sequence (Q96Q15 whole entry, one chain of several) above

B1: the binding result (in the experiment with SMG-1–8–9 complex; in experiment [1]) was “binds” each time. In the case of B2, the binding result is “binds” with SMG-8; “binds” in experiment [2]; “binds” with UPF1, full length [3]. Regarding B3, the binding result with UPF1, full length [4] is listed as “binds”. Consider B4, for which the binding result in experiment [2] was “binds”.
